Measurements taken from doi:10.1101/2022.11.23.517744.
Where “and” joins values, the source holds several entries; their conditions need not be identical. Identical values can stand only once.

Molecular target: human vinculin D1D2 (head domain subunits D1D2), wild type (human)
Test: native gel or EMSA

Question: Which stoichiometry N (D1D2 per IpaA-VBS123) does the source give for “Shigella IpaA-VBS123 (C-terminal region with the three vinculin binding sites), wild type, GST cleaved (domain or fragment)” here?
Answer: Its stoichiometry N (D1D2 per IpaA-VBS123) is 2 and 3.
